Measurements from article PMC11780864, “RNA G-quadruplex structure-based PROTACs for targeted DHX36 protein degradation and gene activity modulation in mammalian cells”.

T1: DHX36 (RHAU) (UniProt Q9H2U1 1-1008)
T1 sequence: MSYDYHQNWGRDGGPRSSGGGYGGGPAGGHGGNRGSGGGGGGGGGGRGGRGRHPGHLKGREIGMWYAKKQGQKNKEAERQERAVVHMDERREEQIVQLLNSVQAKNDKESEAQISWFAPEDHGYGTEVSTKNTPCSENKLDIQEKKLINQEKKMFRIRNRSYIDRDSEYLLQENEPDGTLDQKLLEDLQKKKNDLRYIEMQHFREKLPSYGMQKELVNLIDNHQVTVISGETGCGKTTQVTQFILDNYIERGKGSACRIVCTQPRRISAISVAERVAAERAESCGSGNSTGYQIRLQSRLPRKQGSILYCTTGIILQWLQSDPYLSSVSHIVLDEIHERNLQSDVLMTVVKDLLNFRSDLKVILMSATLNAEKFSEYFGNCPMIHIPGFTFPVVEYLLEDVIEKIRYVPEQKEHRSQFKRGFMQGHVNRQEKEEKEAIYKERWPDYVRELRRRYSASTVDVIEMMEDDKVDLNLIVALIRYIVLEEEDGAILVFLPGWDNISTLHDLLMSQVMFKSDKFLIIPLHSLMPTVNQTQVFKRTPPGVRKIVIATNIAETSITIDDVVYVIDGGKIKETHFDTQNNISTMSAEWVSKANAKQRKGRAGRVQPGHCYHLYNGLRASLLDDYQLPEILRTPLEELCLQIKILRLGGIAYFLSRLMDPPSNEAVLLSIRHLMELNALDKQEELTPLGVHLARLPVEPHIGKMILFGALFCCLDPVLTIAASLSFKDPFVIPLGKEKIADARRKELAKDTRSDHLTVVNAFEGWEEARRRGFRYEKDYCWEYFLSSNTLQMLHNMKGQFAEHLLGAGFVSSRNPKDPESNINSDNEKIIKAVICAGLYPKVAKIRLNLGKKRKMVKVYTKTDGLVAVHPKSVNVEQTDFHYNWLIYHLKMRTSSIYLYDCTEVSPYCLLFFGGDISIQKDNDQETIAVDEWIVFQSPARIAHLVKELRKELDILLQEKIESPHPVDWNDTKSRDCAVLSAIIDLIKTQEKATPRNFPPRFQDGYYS

B1: FAM_Gnai2 rG4 WT (structured_RNA)
RNA: GGGCCGGCGGUGGGAGCGGAGUGGGUCGGGCGGGG
B2: FAM_APP rG4 WT (structured_RNA)
RNA: CGGGGCGGGUGGGGAGGGGU
modifications: printed with T although called rG4
B3: FAM_dG4_A (T95-2T) (structured_DNA)
DNA: TTGGGTGGGTGGGTGGGT
modifications: 5'-hexynyl clicked to AHPC-PEG2
B4: FAM_rG4_A_PEG2 (FAM_rG4_A) (structured_RNA)
RNA: GGGUUGCGGAGGGUGGGCCU
modifications: 5'-hexynyl clicked to AHPC-PEG2 (VHL ligand)
B5: FAM_Gnai2 rG4 Mut (ssRNA)
RNA: GAGCCGGCGGUGAGAGCGGAGUGAGUCGAACGAAG

Target: T1, DHX36 (RHAU)
Assay: MST; EMSA and MST: 25 mM Tris-HCl pH 7.5, 150 mM KCl, 1 mM MgCl2, 37 C 30 min; 30 nM (EMSA) or 40 nM (MST) FAM-oligo; EMSA gel 10% native PAGE, 0.5x TBE, 4 C
Details: protein: recombinant; for Kd: G4

Row | Binder | Kd (label: 5'-FAM) | Kd (label: 3'-FAM) | other results
1 | B1 | 37.9 ± 3.6 nM |  | 
2 | B2 | 19.7 ± 2.3 nM |  | 
3 | B3 |  | 303 ± 55 nM | 
4 | B4 |  | 79.7 ± 17.3 nM | 
5 | B5 |  |  | binding result (label: 5'-FAM, non-G4): no binding
